The values that follow come from patent US20200199241A1 (Chugai, published 2020).

Sequences and labels used below:
B1: IgG1-F944 (antibody)
heavy: QVQLQESGPGLVKPSETLSLTCAVSGHSISHDHAWSWVRQPPGEGLEWIGFISYSGITNYNPSLQGRVTISRDNSKNTLYLQMNSLRAEDTAVYYCARSLARTTAMDYWGEGTLVTVSSASTKGPSVFPLAPSSKSTSGGTAALGCLVKDYFPEPVTVSWNSGALTSGVHTFPAVLQSSGLYSLSSVVTVPSSSLGTQTYICNVNHKPSNTKVDKKVEPKSCDKTHTCPPCPAPELLGGPSVFLFPPKPKDVLYISRTPEVTCVVVDVSHEDPEVKFNWYVDGVEVHNAKTKPREEQYNSTYRVVSVLTVLHQDWLNGKEYKCKVSNKALPAPIEKTISKAKGQPREPQVYTLPPSRDELTKNQVSLTCLVKGFYPSDIAVEWESNGQPENNYKTTPPVLDSDGSFFLYSKLTVDKSRWQQGNVFSCSVMHEALHYHVTQKSLSLSP
light: not shown
notes: EU numbering; copies: 2 + 2
B2: IgG1-F966 (antibody)
heavy: QVQLQESGPGLVKPSETLSLTCAVSGHSISHDHAWSWVRQPPGEGLEWIGFISYSGITNYNPSLQGRVTISRDNSKNTLYLQMNSLRAEDTAVYYCARSLARTTAMDYWGEGTLVTVSSASTKGPSVFPLAPSSKSTSGGTAALGCLVKDYFPEPVTVSWNSGALTSGVHTFPAVLQSSGLYSLSSVVTVPSSSLGTQTYICNVNHKPSNTKVDKKVEPKSCDKTHTCPPCPAPELLGGPSVFLFPPKPKDTLYIARTPEVTCVVVDVSHEDPEVKFNWYVDGVEVHNAKTKPREEQYNSTYRVVSVLTVLHQDWLNGKEYKCKVSNKALPAPIEKTISKAKGQPREPQVYTLPPSRDELTKNQVSLTCLVKGFYPSDIAVEWESNGQPENNYKTTPPVLDSDGSFFLYSKLTVDKSRWQQGNVFSCSVMHEALHYHYTQKSLSLSP
light: not shown
notes: EU numbering; copies: 2 + 2
B3: IgG1-F960 (antibody)
heavy: QVQLQESGPGLVKPSETLSLTCAVSGHSISHDHAWSWVRQPPGEGLEWIGFISYSGITNYNPSLQGRVTISRDNSKNTLYLQMNSLRAEDTAVYYCARSLARTTAMDYWGEGTLVTVSSASTKGPSVFPLAPSSKSTSGGTAALGCLVKDYFPEPVTVSWNSGALTSGVHTFPAVLQSSGLYSLSSVVTVPSSSLGTQTYICNVNHKPSNTKVDKKVEPKSCDKTHTCPPCPAPELLGGPSVFLFPPKPKDTLYISRTPEVTCVVVDVSHEDPEVKFNWYVDGVEVHNAKTKPREEQYNSTYRVVSVLTVLHQDWLNGKEYKCKVSNKALPAPIEKTISKAKGQPREPQVYTLPPSRDELTKNQVSLTCLVKGFYPSDIAVEWESNGQPENNYKTTPPVLDSDGSFFLYSKLTVDKSRWQQGNVFSCSVMHEALHYRVTQKSLSLSP
light: not shown
notes: EU numbering; copies: 2 + 2
B4: IgG1-F971 (antibody)
heavy: QVQLQESGPGLVKPSETLSLTCAVSGHSISHDHAWSWVRQPPGEGLEWIGFISYSGITNYNPSLQGRVTISRDNSKNTLYLQMNSLRAEDTAVYYCARSLARTTAMDYWGEGTLVTVSSASTKGPSVFPLAPSSKSTSGGTAALGCLVKDYFPEPVTVSWNSGALTSGVHTFPAVLQSSGLYSLSSVVTVPSSSLGTQTYICNVNHKPSNTKVDKKVEPKSCDKTHTCPPCPAPELLGGPSVFLFPPKPKDTLYIHRTPEVTCVVVDVSHEDPEVKFNWYVDGVEVHNAKTKPREEQYNSTYRVVSVLTVLHQDWLNGKEYKCKVSNKALPAPIEKTISKAKGQPREPQVYTLPPSRDELTKNQVSLTCLVKGFYPSDIAVEWESNGQPENNYKTTPPVLDSDGSFFLYSKLTVDKSRWQQGNVFSCSVMHEALHYHYTQKSLSLSP
light: not shown
notes: EU numbering; copies: 2 + 2
B5: IgG1-F957 (antibody)
heavy: QVQLQESGPGLVKPSETLSLTCAVSGHSISHDHAWSWVRQPPGEGLEWIGFISYSGITNYNPSLQGRVTISRDNSKNTLYLQMNSLRAEDTAVYYCARSLARTTAMDYWGEGTLVTVSSASTKGPSVFPLAPSSKSTSGGTAALGCLVKDYFPEPVTVSWNSGALTSGVHTFPAVLQSSGLYSLSSVVTVPSSSLGTQTYICNVNHKPSNTKVDKKVEPKSCDKTHTCPPCPAPELLGGPSVFLFPPKPKDTLYISRTPEVTCVVVDVSHEDPEVKFNWYVDGVEVHNAKTKPREEQYNSTYRVVSVLTVLHQDWLNGKEYKCKVSNKALPAPIEKTISKAKGQPREPQVYTLPPSRDELTKNQVSLTCLVKGFYPSDIAVEWESNGQPENNYKTTPPVLDSDGSFFLYSKLTVDKSRWQQGNVFSCSVMHEALHYNVTQKSLSLSP
light: not shown
notes: EU numbering; copies: 2 + 2
B6: IgG1-F947 (antibody)
heavy: QVQLQESGPGLVKPSETLSLTCAVSGHSISHDHAWSWVRQPPGEGLEWIGFISYSGITNYNPSLQGRVTISRDNSKNTLYLQMNSLRAEDTAVYYCARSLARTTAMDYWGEGTLVTVSSASTKGPSVFPLAPSSKSTSGGTAALGCLVKDYFPEPVTVSWNSGALTSGVHTFPAVLQSSGLYSLSSVVTVPSSSLGTQTYICNVNHKPSNTKVDKKVEPKSCDKTHTCPPCPAPELLGGPSVFLFPPKPKDVLYISRTPEVTCVVVDVSHEDPEVKFNWYVDGVEVHNAKTKPREEQYNSTYRVVSVLQPLHADWLNGKEYKCKVSNKALPAPIEKTISKAKGQPREPQVYTLPPSRDELTKNQVSLTCLVKGFYPSDIAVEWESNGQPENNYKTTPPVLDSDGSFFLYSKLTVDKSRWQQGNVFSCSVMHEALHYHVTQKSLSLSP
light: not shown
notes: copies: 2 + 2
B7: IgG1-F978 (antibody)
heavy: QVQLQESGPGLVKPSETLSLTCAVSGHSISHDHAWSWVRQPPGEGLEWIGFISYSGITNYNPSLQGRVTISRDNSKNTLYLQMNSLRAEDTAVYYCARSLARTTAMDYWGEGTLVTVSSASTKGPSVFPLAPSSKSTSGGTAALGCLVKDYFPEPVTVSWNSGALTSGVHTFPAVLQSSGLYSLSSVVTVPSSSLGTQTYICNVNHKPSNTKVDKKVEPKSCDKTHTCPPCPAPELLGGPSVFLFPPKPKDTLYIQRTPEVTCVVVDVSHEDPEVKFNWYVDGVEVHNAKTKPREEQYNSTYRVVSVLTVLHQDWLNGKEYKCKVSNKALPAPIEKTISKAKGQPREPQVYTLPPSRDELTKNQVSLTCLVKGFYPSDIAVEWESNGQPENNYKTTPPVLDSDGSFFLYSKLTVDKSRWQQGNVFSCSVMHEALHYHYTQKSLSLSP
light: not shown
notes: EU numbering; copies: 2 + 2
B8: IgG1-F970 (antibody)
heavy: QVQLQESGPGLVKPSETLSLTCAVSGHSISHDHAWSWVRQPPGEGLEWIGFISYSGITNYNPSLQGRVTISRDNSKNTLYLQMNSLRAEDTAVYYCARSLARTTAMDYWGEGTLVTVSSASTKGPSVFPLAPSSKSTSGGTAALGCLVKDYFPEPVTVSWNSGALTSGVHTFPAVLQSSGLYSLSSVVTVPSSSLGTQTYICNVNHKPSNTKVDKKVEPKSCDKTHTCPPCPAPELLGGPSVFLFPPKPKDTLYIGRTPEVTCVVVDVSHEDPEVKFNWYVDGVEVHNAKTKPREEQYNSTYRVVSVLTVLHQDWLNGKEYKCKVSNKALPAPIEKTISKAKGQPREPQVYTLPPSRDELTKNQVSLTCLVKGFYPSDIAVEWESNGQPENNYKTTPPVLDSDGSFFLYSKLTVDKSRWQQGNVFSCSVMHEALHYHYTQKSLSLSP
light: not shown
notes: EU numbering; copies: 2 + 2
B9: IgG1-F954 (antibody)
heavy: QVQLQESGPGLVKPSETLSLTCAVSGHSISHDHAWSWVRQPPGEGLEWIGFISYSGITNYNPSLQGRVTISRDNSKNTLYLQMNSLRAEDTAVYYCARSLARTTAMDYWGEGTLVTVSSASTKGPSVFPLAPSSKSTSGGTAALGCLVKDYFPEPVTVSWNSGALTSGVHTFPAVLQSSGLYSLSSVVTVPSSSLGTQTYICNVNHKPSNTKVDKKVEPKSCDKTHTCPPCPAPELLGGPSVFLFPPKPKDTLYISRTPEVTCVVVDVSHEDPEVKFNWYVDGVEVHNAKTKPREEQYNSTYRVVSVLTVLHQDWLNGKEYKCKVSNKALPAPIEKTISKAKGQPREPQVYTLPPSRDELTKNQVSLTCLVKGFYPSDIAVEWESNGQPENNYKTTPPVLDSDGSFFLYSKLTVDKSRWQQGNVFSCSVMHEALHYKVTQKSLSLSP
light: not shown
notes: EU numbering; copies: 2 + 2
B10: IgG1-F972 (antibody)
heavy: QVQLQESGPGLVKPSETLSLTCAVSGHSISHDHAWSWVRQPPGEGLEWIGFISYSGITNYNPSLQGRVTISRDNSKNTLYLQMNSLRAEDTAVYYCARSLARTTAMDYWGEGTLVTVSSASTKGPSVFPLAPSSKSTSGGTAALGCLVKDYFPEPVTVSWNSGALTSGVHTFPAVLQSSGLYSLSSVVTVPSSSLGTQTYICNVNHKPSNTKVDKKVEPKSCDKTHTCPPCPAPELLGGPSVFLFPPKPKDTLYIIRTPEVTCVVVDVSHEDPEVKFNWYVDGVEVHNAKTKPREEQYNSTYRVVSVLTVLHQDWLNGKEYKCKVSNKALPAPIEKTISKAKGQPREPQVYTLPPSRDELTKNQVSLTCLVKGFYPSDIAVEWESNGQPENNYKTTPPVLDSDGSFFLYSKLTVDKSRWQQGNVFSCSVMHEALHYHYTQKSLSLSP
light: not shown
notes: EU numbering; copies: 2 + 2
B11: IgG1-F945 (antibody)
heavy: QVQLQESGPGLVKPSETLSLTCAVSGHSISHDHAWSWVRQPPGEGLEWIGFISYSGITNYNPSLQGRVTISRDNSKNTLYLQMNSLRAEDTAVYYCARSLARTTAMDYWGEGTLVTVSSASTKGPSVFPLAPSSKSTSGGTAALGCLVKDYFPEPVTVSWNSGALTSGVHTFPAVLQSSGLYSLSSVVTVPSSSLGTQTYICNVNHKPSNTKVDKKVEPKSCDKTHTCPPCPAPELLGGPSVFLFPPKPKDVLYISRTPEVTCVVVDVSHEDPEVKFNWYVDGVEVHNAKTKPREEQYNSTYRVVSVLTPLHQDWLNGKEYKCKVSNKALPAPIEKTISKAKGQPREPQVYTLPPSRDELTKNQVSLTCLVKGFYPSDIAVEWESNGQPENNYKTTPPVLDSDGSFFLYSKLTVDKSRWQQGNVFSCSVMHEALHYHVTQKSLSLSP
light: not shown
notes: EU numbering; copies: 2 + 2
B12: IgG1-F946 (antibody)
heavy: QVQLQESGPGLVKPSETLSLTCAVSGHSISHDHAWSWVRQPPGEGLEWIGFISYSGITNYNPSLQGRVTISRDNSKNTLYLQMNSLRAEDTAVYYCARSLARTTAMDYWGEGTLVTVSSASTKGPSVFPLAPSSKSTSGGTAALGCLVKDYFPEPVTVSWNSGALTSGVHTFPAVLQSSGLYSLSSVVTVPSSSLGTQTYICNVNHKPSNTKVDKKVEPKSCDKTHTCPPCPAPELLGGPSVFLFPPKPKDVLYISRTPEVTCVVVDVSHEDPEVKFNWYVDGVEVHNAKTKPREEQYNSTYRVVSVLQVLHADWLNGKEYKCKVSNKALPAPIEKTISKAKGQPREPQVYTLPPSRDELTKNQVSLTCLVKGFYPSDIAVEWESNGQPENNYKTTPPVLDSDGSFFLYSKLTVDKSRWQQGNVFSCSVMHEALHYHVTQKSLSLSP
light: not shown
notes: EU numbering; copies: 2 + 2

For this assay, the target named is T1, soluble human FcRn complexed with β2-microglobulin (human, UniProt P61769 21-119, limits assumed).
T1 construct: also called hFcRn
T1 sequence (chain, as listed by the source limits assumed, chain 1 of 2): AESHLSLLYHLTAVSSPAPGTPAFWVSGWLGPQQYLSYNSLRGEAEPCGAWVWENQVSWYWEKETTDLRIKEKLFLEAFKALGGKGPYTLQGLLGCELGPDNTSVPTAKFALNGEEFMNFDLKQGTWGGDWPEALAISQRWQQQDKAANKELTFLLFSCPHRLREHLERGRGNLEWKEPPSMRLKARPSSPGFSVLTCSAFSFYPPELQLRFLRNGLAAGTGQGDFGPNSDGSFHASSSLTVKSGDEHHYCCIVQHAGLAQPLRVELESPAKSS
T1 sequence (P61769 21-119 limits assumed, chain 2 of 2): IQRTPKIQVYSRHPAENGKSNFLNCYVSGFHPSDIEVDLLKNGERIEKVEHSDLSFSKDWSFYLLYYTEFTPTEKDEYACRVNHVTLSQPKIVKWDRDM
Kind of assay: Biacore SPR, pH 7.0.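 Also: test antibodies captured on a Protein L chip with human FcRn flowed over as analyte, KD obtained as the ratio of dissociation to association rate constants.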
In turn, B1 showed a Kd of 170 nM. The molecule B2 returned a Kd of 310 nM. In the case of B3, the Kd stood at 800 nM. B4: the Kd turned out to be 2600 nM. As to B5, binding was put at a Kd of 770 nM.

For the molecule B6, the Kd was 11 nM. B7 came in with a dissociation constant (Kd) of 1300 nM. Regarding B8, the Kd is 2500 nM. This Kd lies about 1.9-fold higher than the previous one.

On to B9, for which binding was put at a Kd of 530 nM. Then B10, with 260 nM; and B11, with 17 nM. With B12, the Kd was 43 nM.

As usually defined, the Kd is the constant that tells how readily two partners part at equilibrium. A low value points to tighter binding.
